Experimental data reported in US20230107644A1.
Positions count from the first letter of the chain named.

Assays:
[1] = target: H3 A/duck/Shantou/1283/2001 (Influenza A virus (A/duck/Shantou/1283/2001))
[2] = target: HA (H3) of influenza virus A/Brisbane/10/2007 (influenza A virus A/Brisbane/10/2007 (H3N2))
[3] = target: HA (H3) of influenza virus A/Perth/16/2009 (influenza A virus A/Perth/16/2009 (H3N2))
[4] = target: HA (H3) of influenza virus A/Wisconsin/67/2005 (influenza A virus A/Wisconsin/67/2005 (H3N2))
[5] = target: HA (H3) of influenza virus A/Brisbane/10/2007 (influenza A virus A/Brisbane/10/2007 (H3N2)); assay: cell-based or functional assay
[6] = target: HA (H3) of influenza virus A/Perth/16/2009 (influenza A virus A/Perth/16/2009 (H3N2)); assay: cell-based or functional assay
[7] = target: HA (H3) of influenza virus A/Switzerland/9715283/2013 (influenza A virus A/Switzerland/9715283/2013 (H3N2)); assay: cell-based or functional assay
[8] = target: HA (H3) of influenza virus A/Texas/50/2012 (influenza A virus A/Texas/50/2012 (H3N2)); assay: cell-based or functional assay
[9] = target: HA (H3) of influenza virus A/Uruguay/716/2007 (influenza A virus A/Uruguay/716/2007 (H3N2)); assay: cell-based or functional assay
[10] = target: HA (H3) of influenza virus A/Victoria/210/2009 (influenza A virus A/Victoria/210/2009 (H3N2)); assay: cell-based or functional assay
[11] = target: HA (H3) of influenza virus A/Victoria/361/2011 (influenza A virus A/Victoria/361/2011 (H3N2)); assay: cell-based or functional assay
[12] = target: HA (H3) of influenza virus A/Wisconsin/67/2005 (influenza A virus A/Wisconsin/67/2005 (H3N2)); assay: cell-based or functional assay
[13] = target: N2 A/shorebird/Delaware/127/1997 (Influenza A virus (A/shorebird/Delaware/127/1997))
[14] = target: NA (N2) of influenza virus A/Brisbane/10/2007 (influenza A virus A/Brisbane/10/2007 (H3N2))
[15] = target: NA (N2) of influenza virus A/Wisconsin/67/2005 (influenza A virus A/Wisconsin/67/2005 (H3N2))
[16] = target: NA (N2) of influenza virus A/Brisbane/10/2007 (influenza A virus A/Brisbane/10/2007 (H3N2)); assay: cell-based or functional assay
[17] = target: NA (N2) of influenza virus A/Perth/16/2009 (influenza A virus A/Perth/16/2009 (H3N2)); assay: cell-based or functional assay
[18] = target: NA (N2) of influenza virus A/Texas/50/2012 (influenza A virus A/Texas/50/2012 (H3N2)); assay: cell-based or functional assay
[19] = target: NA (N2) of influenza virus A/Uruguay/716/2007 (influenza A virus A/Uruguay/716/2007 (H3N2)); assay: cell-based or functional assay
[20] = target: NA (N2) of influenza virus A/Victoria/361/2011 (influenza A virus A/Victoria/361/2011 (H3N2)); assay: cell-based or functional assay
[21] = target: NA (N2) of influenza virus A/Wisconsin/67/2005 (influenza A virus A/Wisconsin/67/2005 (H3N2)); assay: cell-based or functional assay

B1: 1092E4 hmAb (antibody, V domains shown)
VH: QVQLVQSGAEVKKPGASVKVSCKASGYSFTRYGISWVRQAPGQGLEWMGWISAYTGNTDYAQKFQGRITMTTDTSTSTVYMELRSLRSDDTAVYYCARDHPQGVVILGSYYYGMDVWGQGNTVTVSS
VL: EIVLTQSPGTLSLSPGERATLSCRASQSVTSRYLAWYQQKLGQAPRLLIYGASSRATGIPDRFSGSGSGTDFTLTISSLEPEDFAVYYCQQSGSPRTFGQGTKVEIK
ELISA area under curve (AUC) (H1 protein): 18.5 | ELISA area under curve (AUC) [1]: 28.7 | ELISA area under curve (AUC) (H7 protein): 26 | ELISA area under curve (AUC) [2]: 31.7 | ELISA area under curve (AUC) [3]: 33.4 | ELISA area under curve (AUC) [4]: 32.5 | NT50 [5]: 0.1 µg/mL | NT50 [6]: 3.13 µg/mL | NT50 [7]: 6.25 µg/mL | NT50 [8]: 6.25 µg/mL | NT50 [9]: 0.1 µg/mL | NT50 [10]: 6.25 µg/mL | NT50 [11]: 0.1 µg/mL | NT50 [12]: 0.2 µg/mL

B2: 1092C4 hmAb (antibody, V domains shown)
VH: B1 VH with Q1E, V79A, H100L
VL: B1 VL with F84L
ELISA area under curve (AUC) (H1 protein): 9.8 | ELISA area under curve (AUC) [1]: 34.4 | ELISA area under curve (AUC) (H7 protein): 27.3 | ELISA area under curve (AUC) [2]: 32.3 | ELISA area under curve (AUC) [3]: 31.4 | ELISA area under curve (AUC) [4]: 33.7 | NT50 [5]: 0.1 µg/mL | NT50 [6]: 3.13 µg/mL | NT50 [7]: 0.78 µg/mL | NT50 [8]: 6.25 µg/mL | NT50 [9]: 0.2 µg/mL | NT50 [10]: 6.25 µg/mL | NT50 [11]: 0.1 µg/mL | NT50 [12]: 1.6 µg/mL

B3: 1086G8 hmAb (antibody, V domains shown)
VH: EVQLLESGGGLVQPGGSLRLSCTASGFTFASDAMNWVRQAPGKGLEWVSAISGNGGITYFADSVKGRFTISRDNSKDTLYLQMDSLRAEDTAVYYCAKGVAPSHFNLLTGYYAGHYYFDFWGQGTLVTVSS
VL: EIVMTQSPATLSVSPGERATLSCRASQSVRHNLAWYQHKPGQPPRLLIYGASTRAASVPARFSGSGSGTDFTLTISSLQSEDFAVYYCQQYNHWPPYTFGQGTKLEIK
ELISA area under curve (AUC) (H1 protein): 11.4 | ELISA area under curve (AUC) [1]: 31.4 | ELISA area under curve (AUC) (H7 protein): 25.2 | ELISA area under curve (AUC) [2]: 31.2 | ELISA area under curve (AUC) [3]: 28 | ELISA area under curve (AUC) [4]: 33.7 | NT50 [5]: 0.4 µg/mL | NT50 [6]: 6.25 µg/mL | NT50 [7]: 12.5 µg/mL | NT50 [8]: 6.25 µg/mL | NT50 [9]: 0.4 µg/mL | NT50 [10]: 12.5 µg/mL | NT50 [11]: 0.2 µg/mL | NT50 [12]: 3.13 µg/mL

B4: 1122A11 hmAb (antibody, V domains shown)
VH: QVQLVQSGAEVSKPGASVKVSCKASGYSFTSQSLGWVRQAPGQGLEWMGIINPSGGITNYAHKFQGRVTMTRDTSTSTVYMELSSLRSEDTALYYCVRDLSHYNEVGHDRAYYYGMDIWGQGTTVTVSS
VL: SYELIQPPSVSVSPGQTASITCSGDKLGKKYTCWYQQKPGQSPVLVIYQDNKRPSGIPERFSGSNSGNTATLTISGTQAMDEADYYCQAWDSSAVVFGGGTKLTVL
ELISA area under curve (AUC) [13]: 15.2 | ELISA area under curve (AUC) [14]: 35.8 | ELISA area under curve (AUC) [15]: 34.7 | NT50 [16]: 6.25 µg/mL | NT50 [17]: 0.2 µg/mL | NT50 [18]: 3.13 µg/mL | NT50 [19]: 0.2 µg/mL | NT50 [20]: 1.6 µg/mL | NT50 [21]: 25 µg/mL

B5: 1122B9 hmAb (antibody, V domains shown)
VH: EVQLVESGGGLVQPGGSLRLSCAASGFTFSGYAMSWVRQAPGKGLECVSGIIGSGGSTYSADSVKGRFTISRDNSKNTLDLEMNSLRAEDTAVYYCAKHTKSHYYSGMGVWGQGTTVTVSS
VL: DIQMTQSPSSLSASVGDRVTITCQASQDISNYLNWYQQRPGKAPKLLIYDAANLETGVPSRFSGSGSATQFTFTISGLQPEDFATYYCQQYDNLPLTFGGGTKVEIK
ELISA area under curve (AUC) [13]: 25.2 | ELISA area under curve (AUC) [14]: 35.2 | ELISA area under curve (AUC) [15]: 35.3
